Data: publication PMC7267768, “Three kinds of treatment with Homoharringtonine, Hydroxychloroquine or shRNA and their combination against coronavirus PEDV in vitro” (Virology Journal, 2020)

Molecular target: T1, HR1 peptide of the PEDV spike glycoprotein (optimal focused HR1 domain) (porcine epidemic diarrhea virus (PEDV))
T1 construct: Spike glycoprotein of porcine epidemic diarrhea virus (PEDV), heptad repeat 1; numbers count on: GenBank ALS35469.1; source: synthetic peptide (China Peptides)
T1 peptide: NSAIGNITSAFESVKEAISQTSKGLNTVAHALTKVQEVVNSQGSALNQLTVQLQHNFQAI
Assay: SEC; HR1 and tHR2 mixed, each at 15 uM, incubated 2 h; Superdex G75, 20 mM Tris-HCl pH 8.0; mass estimated against protein standards
Settings: both partners purified

B1: truncated HR2 peptide tHR2 of the PEDV spike glycoprotein (1278-1316, 39Aa) (peptide)
peptide: LTGEIADLEQRSESLRNTTEELRSLINNINNTLVDLEWL
notes: Spike glycoprotein of porcine epidemic diarrhea virus (PEDV), truncated heptad repeat 2, residues 1278-1316 (39 residues); the predicted HR2 domain is 1263-1314; numbers count on: GenBank ALS35469.1; source: synthetic peptide (China Peptides)
stoichiometry N: ~1 tHR2 per HR1 (3:3)
